Experimental data as given in patent publication US20050249738A1.

Target: CD22 on human B cells (human) (UniProt P20273)
Assay: cell-based or functional assay

Sequence of UniProt P20273 (P20273 20-847): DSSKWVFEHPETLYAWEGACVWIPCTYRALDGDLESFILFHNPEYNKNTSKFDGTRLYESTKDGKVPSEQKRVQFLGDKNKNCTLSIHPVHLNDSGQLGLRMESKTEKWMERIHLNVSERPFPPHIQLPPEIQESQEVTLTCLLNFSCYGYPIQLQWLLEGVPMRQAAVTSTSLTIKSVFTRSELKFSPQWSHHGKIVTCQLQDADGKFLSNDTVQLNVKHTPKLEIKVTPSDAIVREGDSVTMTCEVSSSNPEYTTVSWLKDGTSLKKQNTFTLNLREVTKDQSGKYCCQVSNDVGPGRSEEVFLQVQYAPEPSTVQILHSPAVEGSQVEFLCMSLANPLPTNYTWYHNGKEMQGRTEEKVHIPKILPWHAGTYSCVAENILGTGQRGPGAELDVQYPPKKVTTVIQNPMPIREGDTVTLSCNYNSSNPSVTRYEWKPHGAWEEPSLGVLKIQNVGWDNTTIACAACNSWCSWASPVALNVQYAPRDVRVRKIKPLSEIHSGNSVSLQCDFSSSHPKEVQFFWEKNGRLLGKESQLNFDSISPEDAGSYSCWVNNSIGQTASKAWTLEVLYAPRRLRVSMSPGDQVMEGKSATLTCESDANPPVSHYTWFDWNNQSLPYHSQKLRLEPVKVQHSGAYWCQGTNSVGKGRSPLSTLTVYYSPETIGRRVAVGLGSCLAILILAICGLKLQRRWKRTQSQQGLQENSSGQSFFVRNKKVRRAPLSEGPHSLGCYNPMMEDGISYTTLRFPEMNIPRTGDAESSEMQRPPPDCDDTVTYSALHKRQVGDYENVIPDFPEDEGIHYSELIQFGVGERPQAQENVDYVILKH

LL2-ONCONASE® immunotoxin
IC50 of protein synthesis inhibition, CA 46 cells, 24 h: 0.8 nM | IC50 of protein synthesis inhibition, Daudi cells, 24 h: 0.1 nM | IC50 of protein synthesis inhibition, Raji cells, 24 h: 0.8 nM
